Assays:
[1] = biological target: mouse-human chimeric mAb 101F; experiment: ELISA
D25 [2] = experiment: ELISA
D25 [3] = details: cells fixed with 4% (vol/vol) paraformaldehyde 16 h after transfection; read off a plot
palivizumab = details: cells fixed with 4% (vol/vol) paraformaldehyde 16 h after transfection; read off a plot

Substance: pre-fusion RSV A2 F SC-TM protein G430A
- EC50 [1]: 0.97 µg/mL

Substance: pre-fusion RSV A2 F SC-TM protein R429A
- EC50 (D25 [2]): 0.023 µg/mL

Substance: wild-type RSV F (RSV-A2) expressed on HEK-293T cells R429A
- percent of parent (D25 [3]): 390 % WT
- percent of parent (palivizumab): 310 % WT

Substance: post-fusion RSV A2 F protein R429A
- EC50 [1]: 0.026 µg/mL

Substance: post-fusion RSV A2 F protein I432A
- EC50 [1]: 0.066 µg/mL

Substance: wild-type RSV F (RSV-A2) expressed on HEK-293T cells G430A
- percent of parent (D25 [3]): 310 % WT
- percent of parent (palivizumab): 400 % WT

Substance: wild-type RSV F (RSV-A2) expressed on HEK-293T cells I432A
- percent of parent (D25 [3]): 240 % WT
- percent of parent (palivizumab): 260 % WT

Substance: post-fusion RSV A2 F protein G430A
- EC50 [1]: 0.035 µg/mL

Reference: article PMC5823459
